Km and apparent Km for Fd as electron acceptor of BmWOR in the benzaldehyde oxidation assay (enzyme activity, Fd reduction followed data for three substances are collected here from PMC9424855, “Obligately aerobic human gut microbe expresses an oxygen resistant tungsten-containing oxidoreductase for detoxifying gut aldehydes” (Frontiers in Microbiology, 2022).

The test system of one data set is O=Cc1ccco1. The data set can be described thus: purified protein. The conditions noted are these: apparent Km, benzyl viologen 1 mM as electron acceptor, 50 mM HEPES pH 7.5, 35 °C, anaerobic.
For the next data set, the system named is CC(C)CC=O. Kind of data set: purified protein. The following applies: apparent Km, benzyl viologen 1 mM as electron acceptor, 50 mM HEPES pH 7.5, 35 °C, anaerobic.
Another data set has as its system O=Cc1ccccc1. The data set can be described thus: purified protein. The following applies: apparent Km, benzyl viologen 1 mM as electron acceptor, 50 mM HEPES pH 7.5, 35 °C, anaerobic.
In a further data set the test system is O=C/C=C/c1ccccc1. Kind of data set: purified protein. The conditions noted are these: apparent Km, benzyl viologen 1 mM as electron acceptor, 50 mM HEPES pH 7.5, 35 °C, anaerobic.
In data set [1] the target is Brevibacillus massiliensis tungsten-containing oxidoreductase (BmWOR) (Brevibacillus massiliensis).
For another data set, the target named is BmWOR (Brevibacillus massiliensis, UniProt Z9C1J5R5O5). Kind of data set: benzyl viologen reduction followed at […] nm. The following applies: apparent Km; benzyl viologen 1 mM as electron acceptor, 50 mM HEPES pH 7.5, 35 °C, anaerobic.
Sequence of BmWOR (Z9C1J5R5O5 1-602): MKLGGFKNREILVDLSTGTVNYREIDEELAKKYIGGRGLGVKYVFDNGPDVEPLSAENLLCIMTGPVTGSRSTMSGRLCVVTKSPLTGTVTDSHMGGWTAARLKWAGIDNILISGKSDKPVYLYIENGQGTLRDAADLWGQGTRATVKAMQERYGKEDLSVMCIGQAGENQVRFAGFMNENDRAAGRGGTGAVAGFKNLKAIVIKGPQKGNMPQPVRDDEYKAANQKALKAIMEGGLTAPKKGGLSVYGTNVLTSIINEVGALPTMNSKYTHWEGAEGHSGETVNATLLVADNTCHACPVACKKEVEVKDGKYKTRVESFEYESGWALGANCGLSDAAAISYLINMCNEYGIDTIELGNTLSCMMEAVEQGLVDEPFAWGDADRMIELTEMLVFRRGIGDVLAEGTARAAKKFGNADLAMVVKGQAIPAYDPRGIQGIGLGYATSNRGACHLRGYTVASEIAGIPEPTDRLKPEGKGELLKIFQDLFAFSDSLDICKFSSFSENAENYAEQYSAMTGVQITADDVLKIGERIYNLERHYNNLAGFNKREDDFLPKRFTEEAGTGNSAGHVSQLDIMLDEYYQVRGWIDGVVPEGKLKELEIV

For the substance BmWOR (Brevibacillus massiliensis), the Km (commonly the concentration of substrate that gives half-maximal velocity) with O=Cc1ccco1 came out at 2.1 ± 2.0 µM; with CC(C)CC=O, 3.6 ± 0.9 µM; in the data set on O=Cc1ccccc1 it was 4.2 ± 1.0 µM; in the data set with O=C/C=C/c1ccccc1, 5.6 ± 1.2 µM.

Take “Brevibacillus massiliensis ferredoxin (BmFd) (natural protein)”: the apparent Km for Fd as electron acceptor of BmWOR in the benzaldehyde oxidation assay (enzyme activity, Fd reduction followed at 425 nm) in data set [1] is less than 5 µM.

Regarding Tolualdehyde, the Km on BmWOR worked out at 6.1 ± 2.1 µM.
